Laboratory results taken from the DeepSol protein solubility set.

Test: soluble on expression in E. coli; label from the status in PepcDB or PDB records

Soluble on expression in E. coli, not soluble:
MKLTQLDLSHNNLSVIPTWALTYLHSLQILHLENNRIDVLRSNTFDETQLNNLQFLYLDNNQLRIIPNLAFNHLRLVVLMLANNRITEIQKMSLPQTLKFLVLRNNLLTQIPYVALNDLKTLQSIDLEGNNITHLMDTNEVTFESEMKVILRNNKVRRLDKHSFRSFRKIRELDISYNQIQTVEDSSFETVGHMQSLDLSYNRIAYLPRGMLKNFAKTLKTLKLAENMIHATPEALRDLRNLTHLNLNGNKLNRIDGDVLKGCTDTLVELFIANNYLEHIPHGVLSGMKQLEHLDISKNKIMSLKKPTSLLSITKEETSTVRRLNLAGNRINNMSDYLIFEHMPLLTYVDVSFNRIRFISPRVFEKLKNLESLFLQNNQLAHFPSLFRLDKLRHLMLDNNQIQKIDNFSLADLPKLQHLSLAGNQLDIITENMFGSSSSSELKSLNLAHNKIHSISSRSFSDLDNLQQLRLSHNNIRTITSMTFSNLRNLRYLDLSHNRIIKILPSALYQLPALDVLHLDHNNLNEIDRDAFRSFSDLQSLKLSHNAFRRFSCEFLGSISQVHQLDLSSNQINEIDIFCIARGIRKLSLASNSVEKINRKLLQDATELTSIDISHNGIIDVDSDAFCECRKLSHIKLSHNYIRNLWKGTRVCIPWISHLTTFCFFTKEHLERTISFSYIIVDSSQLTSFGNLSILSFANNKVDSIEDGAFENLLSLKILDLSNNPVTSWSPTAFRDLSHSISSINMANTGLFSMPKFSHRSIQSLNISCNKIYELSEKDLAPLTKVVALDISHNNLKQISSMAFEPLIHLKQLNVSANPITHLTNEHIQQLYKLYNIPDMARPYQISSILSNLPPLHTIYVDIKESALDRQFYTADTRLLRHLVVAGRNLTKIEVGAFATIRGFRVRIEIHNSSIEEFPSRIFDTLTGISILSLSLTDNKLTTFNPFQSTVAPAVNQHGTILHSLELKNNPIKCDCQFKWMDDFIRVTKFLSDHHISHDFDKVECADAQSSNLESFASAANELFSYKTKMTLLSKSEDFGLECAVKYSNPLKPLIYVLMLVCLSYL
MKMATDDHQPPMVRGRRIKLKYAHAGGYNPPIVVIHGNMVRELPDSYKRYLMNYFRKSLEIMGTPIRINFQNSENPFENRANKLTLSQERKRKRMMSVVKNRKK
MKMKKITAMSMAALMAATMIPSVPVMADGGGKVYYLNFKPEQDEAWQNLAKAYTEETGTDVTVVTAASGQYETTLQSEMAKSDAPTLFQVNGPVGLKNWKDYCYDLKDADITKELTSDAYELKDGDAVAGIAYVIESYGLITNKTLLEKAGYTLDDIKSFDDLKKVADDIQARKDEIGVKGAFTSAGMDGSSDWRFKTHLANLPIYYEYKADGIDDTEAIKGTYLDQYKNVFDLYITDSTCDGSELSAKTADDSRNEFVNGDAVFYQNGSWEYAELAKTYSDDELAMIPIYFGVDDENEGLATGTENYWCVNKNASEEDVQATLDFMNWCVTSEAGTKSMSEDMGFTIPFKTAVAPTNVFVKQDAEYTEAGLTPVSWNFTTMPSEEWKNGLGTALTAYAAGTGDWDAVVSAFVDGWATEKALSE
MKMKQVSRSALVSFSAEQMFHLVNDVARYPEFLPGCSGSCVLEQSEAHMVASVDVSKAGISKTFTTSNQLTPGVSIAMSLVDGPFKTLRGGWFFTPLDEAACKVELRLEFEFSSKMIELAFGKIFNELTSNMVNAFTRRAKQVYGEMAGDPLEHHHHHH
MKNEMLALILAGGQGTRLGKLTQSIAKPAVQFGGRYRIIDFALSNCANSGIHNVGVVTQYQPLALNNHIGNGSSWGLDGINSGVSILQPYSASEGNRWFEGTSHAIYQNIDYIDSVNPEYVLILSGDHIYKMDYDDMLQSHKDNNASLTVAVLDVPLKEASRFGIMNTDANNRIVEFEEKPAQPKSTKASMGIYIFDWQRLRNMLVAAEKSKVGMSDFGKNVIPNYLESGESVYAYEFSGYWKDVGTIESLWEANMEYISPENALDSRNRQWKIYSRNLISPPNFLGANAHVEDSLVVDGCFVDGTVKHSILSTGAQVREGAEVLDSVIMSGAIIGQGAKIKRAIIGEGAIISDGVEIDGTDEVQVVGYNEVVGVATDED
MKNIKEKGSQALKITATVFILAVICMSSAASAANLHVDPEAEEGYTTIQAAVDAANAGDTIFVSPGTYVENLKIDKQVRIWSDSRNPENTIVRPSDPAESPVEITGERVTFSGFGVEDSEKAGILLSGATSCFINNNRAQNSKYGILLQDAESNNINGNVITLNEAGLRLESSRSNTIQDNLIAYNYGPGISLEESSRNIFFNNYFKNAENIEENAANADNTWQSTLTVKRNLIRGPYIGGNFWADIEGTGYSETCEDKNSNGICDASYTLNGGGSDNSPLFPKVPSAVTALENKLDAEAYELGMETRGVEVNETENPAGEQTGENGPEGEENKTAETEASENGTPAPGIGFAIMAAGAAYFLKRRKAAALEHHHHHH
